Test results from patent US5580712.

Molecular target: FLAG epitope Trypsin site N-terminally tagged 9 repeat GG biopolymer (SEQ ID NO:20)

completeness of proteolytic cleavage, from relative mobility on SDS gels: 100%
Substance: Trypsin (type XI DPCC treated) (enzyme)
